Experimental data: PMC2925389, “Pre-Steady-State Kinetic Analysis of Truncated and Full-Length Saccharomyces cerevisiae DNA Polymerase Eta” (Journal of Nucleic Acids, 2010)

What was measured:
[1] = target: T1, yPolη truncated (catalytic core) (Saccharomyces cerevisiae) (UniProt Q04049); test: fluorescence titration (2-aminopurine); settings: 2-aminopurine at position 19 of the 41-mer template (X, written as A); 23°C, buffer A (composition not in material; without BSA for fluorescence); EMSA 10 nM DNA, 10-450 nM protein, 20 min, 4.5% native gel, 40 mM Tris in running …
T1 sequence: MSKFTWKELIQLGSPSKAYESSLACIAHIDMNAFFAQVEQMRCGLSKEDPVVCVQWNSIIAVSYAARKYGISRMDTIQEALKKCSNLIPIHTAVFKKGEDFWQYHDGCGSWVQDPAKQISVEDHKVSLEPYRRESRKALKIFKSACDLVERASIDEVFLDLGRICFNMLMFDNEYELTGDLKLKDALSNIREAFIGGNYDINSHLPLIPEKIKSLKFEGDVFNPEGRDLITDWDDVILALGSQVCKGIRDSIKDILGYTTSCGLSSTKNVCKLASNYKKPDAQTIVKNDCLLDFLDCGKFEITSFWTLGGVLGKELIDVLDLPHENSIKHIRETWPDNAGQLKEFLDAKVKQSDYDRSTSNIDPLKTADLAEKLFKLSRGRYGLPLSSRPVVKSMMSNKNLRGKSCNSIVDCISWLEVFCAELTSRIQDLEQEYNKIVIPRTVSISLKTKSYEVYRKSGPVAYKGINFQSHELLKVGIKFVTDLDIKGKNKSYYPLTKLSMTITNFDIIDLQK

[2] = target: T2, yPolη full-length (Saccharomyces cerevisiae) (UniProt Q04049); test: fluorescence titration (2-aminopurine); settings: 2-aminopurine at position 19 of the 41-mer template (X, written as A); 23°C, buffer A (composition not in material; without BSA for fluorescence); EMSA 10 nM DNA, 10-450 nM protein, 20 min, 4.5% native gel, 40 mM Tris in running …
T2 sequence: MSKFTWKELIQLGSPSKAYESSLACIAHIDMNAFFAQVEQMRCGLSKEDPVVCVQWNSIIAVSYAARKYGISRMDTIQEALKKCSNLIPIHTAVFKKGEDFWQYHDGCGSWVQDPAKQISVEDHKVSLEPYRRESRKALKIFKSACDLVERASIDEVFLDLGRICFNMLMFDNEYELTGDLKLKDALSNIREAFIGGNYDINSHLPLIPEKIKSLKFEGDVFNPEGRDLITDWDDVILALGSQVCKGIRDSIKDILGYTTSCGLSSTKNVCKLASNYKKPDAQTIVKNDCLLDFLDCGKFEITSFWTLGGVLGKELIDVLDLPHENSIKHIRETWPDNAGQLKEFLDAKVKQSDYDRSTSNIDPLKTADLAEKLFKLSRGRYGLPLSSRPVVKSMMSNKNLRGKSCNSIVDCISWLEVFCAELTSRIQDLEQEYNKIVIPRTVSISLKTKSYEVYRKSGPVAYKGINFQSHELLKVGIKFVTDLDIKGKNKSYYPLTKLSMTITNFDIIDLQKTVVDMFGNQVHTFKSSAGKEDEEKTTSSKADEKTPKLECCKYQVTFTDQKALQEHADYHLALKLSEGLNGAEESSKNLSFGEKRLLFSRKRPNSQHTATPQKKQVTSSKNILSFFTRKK

Sequence: CGCAGCCGTCCAACCAACTCA / GGACGGCATTGGATCGACACTGAGTTGGTTGGACGGCTGCG [F-8 21/41-mer]
- Kd [1]: 13 nM
- Kd [2]: 7 nM
